Measurements from patent publication US8334254.

How the values were obtained:
[1] = target: enterocytic lactoferrin receptor on HT-29-18C1 enterocytic cells (human); assay: 125I-labelled ligand on HT29 cells with 100 molar excess of non-labelled native Lf
[2] = target: lymphocytic lactoferrin receptor on Jurkat T lymphoblastic cells; assay: 125I-labelled ligand on Jurkat cells with 100 molar excess of non-labelled native Lf
[3] = target: enterocytic lactoferrin receptor on HT-29-18C1 enterocytic cells (human); assay: 125I-labelled ligand binding to HT-29-18C1 cells on ice, Scatchard analysis
[4] = target: lymphocytic lactoferrin receptor on Jurkat T lymphoblastic cells; assay: 125I-labelled ligand binding to Jurkat cells at 4° C., Scatchard analysis

| Substance | non-specific binding as share of total binding [1] [%] | non-specific binding as share of total binding [2] [%] | Kd [3] [nM] | sites per cell (sites per cell) [3] | Kd [4] [nM] |
| --- | --- | --- | --- | --- | --- |
| recombinant human lactoferrin rhLf2 from pBIOC21-PSSp-Lf, purified from tobacco leaves (transformant T30) (from UniProt P02788 20-710) (ligand) | 25 | 25 | 800 | 1.8e+06 | 80.3 |
| human lactoferrin isolated from human milk (from UniProt P02788 20-710) (ligand) | 25 | 25 | 1000 | 4e+06 | 89.7 |
